Data from paper doi:10.1101/2021.10.05.463238 (bioRxiv, 2021).

B1: SPR2(1-500)-GFP (domain or fragment)
chain: MSTPTTSGSAAKPTRPARSSSLATRSCSNSGSLTSFQAMVELKQKILTSISKLADRDTYQIAVEDLEKTIQSLTPETLPMFLNCLYDSCSDPKPAVKKECLHLLSYVCSLHCDSTAAHLTKIIAQIVKRLKDSDSGVRDACRDTIGALSGIYLKGKEEGTNTGSASLAVGLFVKPLFEAMGEQNKVVQSGASMCMARMVESAASPPVTSFQKLCPRICKLLSNSSFLAKASLLPVVSSLSQVGAIAPQSLESLLESIHDCLGSTDWVTRKAAAETLTALASHSSGLIKEKTDSTITVLETCRFDKIKPVRESVTEALQLWKKISGKYVDGASDDSKLSASEQLGSEKNGEKRSNLADLMKKEASDGSTLSPDSASKGKGCFPEKAVGLLKKKAPVLSDKDFNPEFFQRLERRQSVEVVVPRRCKNNDEEESGLDDLNAMGSSNRLKNTQADDKQVKGRFDGNGSQARTSGDDKAGVVNGKETPGHHAPVSNTDNQSEGSF
B2: SPR2(1-570)-GFP (domain or fragment, Arabidopsis thaliana, UniProt Q9T041 1-570, looked up)
chain: MSTPTTSGSAAKPTRPARSSSLATRSCSNSGSLTSFQAMVELKQKILTSISKLADRDTYQIAVEDLEKTIQSLTPETLPMFLNCLYDSCSDPKPAVKKECLHLLSYVCSLHCDSTAAHLTKIIAQIVKRLKDSDSGVRDACRDTIGALSGIYLKGKEEGTNTGSASLAVGLFVKPLFEAMGEQNKVVQSGASMCMARMVESAASPPVTSFQKLCPRICKLLSNSSFLAKASLLPVVSSLSQVGAIAPQSLESLLESIHDCLGSTDWVTRKAAAETLTALASHSSGLIKEKTDSTITVLETCRFDKIKPVRESVTEALQLWKKISGKYVDGASDDSKLSASEQLGSEKNGEKRSNLADLMKKEASDGSTLSPDSASKGKGCFPEKAVGLLKKKAPVLSDKDFNPEFFQRLERRQSVEVVVPRRCKNNDEEESGLDDLNAMGSSNRLKNTQADDKQVKGRFDGNGSQARTSGDDKAGVVNGKETPGHHAPVSNTDNQSEGSFTSNRGNWSAIQRQLLQLERQQTNLMNMLQEFIGGSHDSMVTLEGRVRGLERIVEDMARDLSISSGRRANL
B3: SPR2 (38-570)-GFP (domain or fragment, Arabidopsis thaliana, UniProt Q9T041 38-570, looked up)
chain: AMVELKQKILTSISKLADRDTYQIAVEDLEKTIQSLTPETLPMFLNCLYDSCSDPKPAVKKECLHLLSYVCSLHCDSTAAHLTKIIAQIVKRLKDSDSGVRDACRDTIGALSGIYLKGKEEGTNTGSASLAVGLFVKPLFEAMGEQNKVVQSGASMCMARMVESAASPPVTSFQKLCPRICKLLSNSSFLAKASLLPVVSSLSQVGAIAPQSLESLLESIHDCLGSTDWVTRKAAAETLTALASHSSGLIKEKTDSTITVLETCRFDKIKPVRESVTEALQLWKKISGKYVDGASDDSKLSASEQLGSEKNGEKRSNLADLMKKEASDGSTLSPDSASKGKGCFPEKAVGLLKKKAPVLSDKDFNPEFFQRLERRQSVEVVVPRRCKNNDEEESGLDDLNAMGSSNRLKNTQADDKQVKGRFDGNGSQARTSGDDKAGVVNGKETPGHHAPVSNTDNQSEGSFTSNRGNWSAIQRQLLQLERQQTNLMNMLQEFIGGSHDSMVTLEGRVRGLERIVEDMARDLSISSGRRANL
B4: full-length SPR2-GFP protein (natural protein, Arabidopsis thaliana, UniProt Q9T041 1-864, looked up)
chain: MSTPTTSGSAAKPTRPARSSSLATRSCSNSGSLTSFQAMVELKQKILTSISKLADRDTYQIAVEDLEKTIQSLTPETLPMFLNCLYDSCSDPKPAVKKECLHLLSYVCSLHCDSTAAHLTKIIAQIVKRLKDSDSGVRDACRDTIGALSGIYLKGKEEGTNTGSASLAVGLFVKPLFEAMGEQNKVVQSGASMCMARMVESAASPPVTSFQKLCPRICKLLSNSSFLAKASLLPVVSSLSQVGAIAPQSLESLLESIHDCLGSTDWVTRKAAAETLTALASHSSGLIKEKTDSTITVLETCRFDKIKPVRESVTEALQLWKKISGKYVDGASDDSKLSASEQLGSEKNGEKRSNLADLMKKEASDGSTLSPDSASKGKGCFPEKAVGLLKKKAPVLSDKDFNPEFFQRLERRQSVEVVVPRRCKNNDEEESGLDDLNAMGSSNRLKNTQADDKQVKGRFDGNGSQARTSGDDKAGVVNGKETPGHHAPVSNTDNQSEGSFTSNRGNWSAIQRQLLQLERQQTNLMNMLQEFIGGSHDSMVTLEGRVRGLERIVEDMARDLSISSGRRANLTAGFGKYNSFANYPTGKYNGRAPGERGSQTDGAMRGRMWNSDMADDWFIPPHAASRNGQAGPRRSPRSEQYENEHMGNGRRGWDNKASGTIRFGEGPSARSVWQASKDEATLEAIRVAGEDGAVPRPTRVAVAPEAEAMGDDDNEGQERDPIWVSWSNAMHSLRVGDIDAAYAEVLCAGDQHLVIKLMDKTGPSLDQMSNEIANEALNFISQFLLDHSLYDICLSWSQQLLELVLQDGADTFGVPMELKTEILYNLQDACSTMDPPEDWEGPAPEQLVVQLASVWEIDLQQFDK

Columns and labels:
[1] = target: taxol-stabilized microtubules of unlabeled porcine brain tubulin (porcine) (UniProt P02550); assay: co-sedimentation
native gel or EMSA = target: the molecule itself; assay: native gel or EMSA

Row | Binder | Kd [1] [µM] | binding result (native gel or EMSA)
1 | B1 | 17.4 | –
2 | B2 | 1.3 | binds
3 | B3 | – | binds
4 | B4 | – | binds
